Measured values from a protein production outcome set (Wang et al. 2014).

Experiment: label from the status in PepcDB records

With “GSSGSSGMASTFTSDTLPADHKAAIRQMKHALRAQLGDVQQIFNQLSDDIATRVAEINALKAQGDAVWPVLSYADIKAGHVTAEQREQIKRRGCAVIKGHFPREQALGWDQSMLDYLDRNRFDEVYKGPGDNFFGTLSASRPEIYPIYWSQAQMQARQSEEMANAQSFLNRLWTFESDGKQWFNPDVSVIYPDRIRRRPPGTTSKGLGAHTDSGALERWLLPAYQRVFANVFNGNLAQYDPWHAAHRTEVEEYTVDNTTKCSVFRTFQGWTALSDMLPGQGLLHVVPIPEAMAYVLLRPLLDDVPEDELCGVAPGRVLPVSEQWHPLLIEALTSIPKLEAGDSVWWHCDVIHSVAPVENQQGWGNVMYIPAAPMCEKNLAYAHKVKAALEKGASPGDFPREDYETNWEGRFTLADLNIHGKRALGMDV” the protein production was “not failed”.
With “GSSGSSGMQLEIQVALNFIISYLYNKLPRRRVNIFGEELERLLKKKYEGHWYPEKPYKGSGFRCIHIGEKVDPVIEQASKESGLDIDDVRGNLPQDLSVWIDPFEVSYQIGEKGPVKVLYVDDNSGPSSG” the protein production was “not failed”.
In the case of “GTIGPVADAEPHAAALGEAFQLTNFLRDVGEDLDRGRVYLPADELAAFGVDTELLAHSRRSGTTDQRIVRALAHLISVTRSVYRDAEPGIAMLDRRVQPGIRTAFVLYSRILDEIERGGYRVLDRRATVSRRNRWATALPQFARLAV”, the protein production is reported as “failed”.
For “GTVSWNLREMLAHAEETRKLMPICMDVRAIMATIQRKYKGIKIQEGIVDYGVRFFFYTSKEPVASIITKLNSLNEPLVTMPIGYVTHGFNLEEAARCMRSLKAPAVVSVSSPDAVTTYNGYLTSSSKTSEEHFVETVSLAGSYRDWSYSGQRTELGVEFLKRGDKIVYHTLESPVEFHLDGEVLSLDKLKSLLS”, the protein production was “not failed”.
With “GYDHKKMGITAKGAWVGVQRHFRERDINVQQDSISVIGIGDMAGDVFGNGLLMSDKLQLVAAFNHLHIFIDPNPEPASSFAERERLFNLPRSSWTDYDTSIMSAGGGIFPRSLKSIAITEQMKARFDIKADKLTPTELLHALLKAPVDLLWNGGIGTYVKSSEESHADVGDKANDALRVDGNELRCKVVGEGGNLGMTQLGRVEFGLNGGATNTDFIDNAGGVDCSDHEVNIKILLNEVVQAGDMTEKQRNQLLESMTDEVGHLVLGNNYKQTQALSLAARRAYERIAEYKRLMSDLEARGKLD” the protein production was “not failed”.
With “GYIQMPLFRLHVQVFTPEREIPLGTVCLLHGYLEHSGIYQPIIREILDQGFSVVTYDLPGHGLSDGSPANIQNFDHYQQVLMAVYQYVKNADQLPKPWLGIGQSTGGAIWMHHLLEYAEKRQDPIVDRVLLLSPLIRPAKTAWWHNSVGLGIIRRIRRQVPRHFRRNNHNPEFLRFIRLKDPLQPRMMGMDWILAMSKWMFEMEQRPACRIPVWLAQGALDQTVDWRYNIEFIRRKFRLQTLLMLEEGSHQLINERADIRAALTGLIPAFLHAR” the protein production was “failed”.
For “HGGHRQYAKEILSTSSAAMASQRSFLGLEPTIKKIPAFRAVYLRHKGYNKSIALSWQKLMAWGFEHQISSQARQIGIHHDNPSITPLAECRYIAALEVEEGFRAQGLLGVMEFPPTLCAVFEVQGRYGDVLGLIDYVYHEWLPQSGYEAKTIPAFALYQKNHFLDPLGNFQLDFCLPVGVV”, the protein production was “failed”.
With “HHIAYTEWGIFEPELPTVICVHGYTRNSRDFDELANYLSSKGRHVFCPDIAGRGDSSWFKNPRYYNFTQYVKDMTVLMARTNAHQIDWIGTSMGGIIGMILAAMPNSPINKLVLNDIGPQIPIHGLRRIAKYAGKAPDFKSLEEAKQHFKASYADFGITNEKQWDIFTKNSVEQRGPNLYVTKMDPAIKKSKSILQIISEFFRHPHKALEGIFYDINLWSIWKQIKCPVIVIHGVNSDILTSEIITQMKKTHALTEVYEVENAGHAPALLDLTVHQRIEDWLATH” the protein production was “failed”.
With “HHSVEAPQVKKRMGKFPFVKASKKESEEISKQLHNALDIELPSESTVWLRDKDVWLFPDALEPMIGELRFSRMGIKIAEAHKNGYRWQHQVATALATGAESNAIELTIEEAREWYMGRDVRPQIIPEGLKTGKGEVLVKYQGAIIGLGKWVSNRIKNGLPRELVRDKNLF” the protein production was “not failed”.
In the case of “HQEIKGRKTLATPAVRRLAMENNIKLSEVVGSGKDGRILKEDILNYLEKQTGAILPP”, the protein production is reported as “not failed”.
In the case of “HRPLNPAMVAFSNDPLLNDLALNSSYSLLFAVNNMKSEKSAEQFYGKMDNQKMLDLVRASSTKIDFDPTLLPTMNSNPATYQGKRKNLVILLQESLGAQFVGSLGGLPLTPNLDELMQEGWQFTQMYATGTRSVRGIEAVTTGFPPSPSRAVVKLSKSQTGFFTIADLLKEQGYHTQFIYGGEANFDNMKTFFFGNGFDQIVEEKNYTNPGFVGSWGVSDEDLYNKADEEFERLSKGDKPFFSLVFTSSNHSPYEYPEGKIEQYDSEHMTRNNAVKYSDYALGTFFDKAKKSSYWDDTIFIVIADHDARVFGANLVPVKHFHIPALIIGKDIQPRKDDRIANNIDMPPTLLSLIGVDAKTPMIGRDLTKPLAREDERAMMQYDKNFGYLTRDNLVVLSPGEKVSTMEYDFESQTMKPLEVDESVIDRAKANALFASKAYQNNWYSSKRTN”, the protein production is reported as “not failed”.
With “HRSDPQIAICLDCLRNNGQSGDNVVKGLMKKFIRCSTRVTVGTIKKFLSLKLKLPSSYELDVLCNGEIMGKDHTMEFIYMTRWRLRGENFRCLNCSASQVCSQDGPLYQSYPMVLQYR” the protein production was “failed”.
For “HRWITRPKFTHFDLHTLNWDLCLTQANHKSNLALEMLKMLLDSLPETVEKIQTALGQNDQATMLSTIHKLHGASCYCGVPTTQRLCQEIESALKRQTPVEDLEPEILELLDELTKVESAVKQVLSQLSAE”, the protein production was “not failed”.
For “HSFVVLVIGESARKHNYALYGYQKPTTPRLSKRLADNELTLFNATSCATYTTASLECILDSSFKNNAYENLPTYLTKAGIKVFWYSANDGEKNVKVTSYLKNYELIQKCPNCEAIAPYDESLLYNLPDLLKEHSNENVLLILHLAGSHGPNYDNKVPLNFRVFKPYCSSADLSSCSKESLINAYDNTIFYNDYLLDKIISMLENAKQPALMIYLSDHGESLGEEAFYLHGIPKSIAPKEQYEIPFIVYAN”, the protein production was “failed”.
In the case of “HSIPYKNINLPCYFISPANDGEKRDTVMIVSGFDGTLEEEFLMRGLAAVERGYNVIHFAGPGQMDVFRKYPDTYFEPDFEQVVKRIINYFEFRQEINMAKLTLMGISFGGYFATRAASHEPRIKVLIANSPILDLHAYMCSFVKMDPCEMPDSEDFSINDLPSIPNEVMPPQLKAQTEHLIRRFGQPTFKATFHYLREFTVGDSLNHIKIPCLALLGSGEGGEPGKQFAEFCKITNSAQYEFSDFEGAGSHCQVGNVSYSNAVVYDWLDSL”, the protein production is reported as “not failed”.
With “HSIVAITDNRGVITHVNEKFCDISQYEYYELVGTTHKIINSGFHPRSFFKQMWKTIAQGNIWKGEICNRTKQGKLYWVDTTIVPLKDND” the protein production was “failed”.
In the case of “IAAGGSHVEAAPQEEWKKHFIHTGELGSAEFASVMSHTTSAMKSVFEQVNAPYSGMDPKALEDAINAVDLDNKNAPLKSVIDDVAELVAKNAIFTQHPDCIAHLHTPPLMPAVAAEAMIAALNQSMDSWDQASSATYVEQKVVNWLCDKYDLSEKADGIFTSGGTQSNQMGLMLARDWIADKLSGHSIQKLGLPDYADKLRIVCSKKSHFTVQKSASWMGLGEKAVMTVDANADGTMDITKLDEVIAQAKAEGLIPFAIVGTAGTTDHGAIDDLDFIADMAVKHDMWMHVDGAYGGALILSSHKSRLKGVERAHSISVDFHKLFYQTISCGALLVNDKSNFKFLLHHADYLNREHDELPNLVDKSIATTKRFDALKVFMTMQNVGPKALGDMYDHLLAQTLEVADMIRTNDQFELLAEPSLSTVLFRATHETADLDELNKALRLEALTRGIAVLGETIVDGKTALKFTILNPCLTTSDFESLLSKINMLAVELV”, the protein production is reported as “not failed”.
With “IAQIPVSVYWMNKNHVYMGCSNNMVKLLNLNSRYDIVGKTYEDLYHEKSTSYYKKADKIVMDKGISLSLEEPFYCPDGTTKEIYLSNKVPLRDLEGKIIGMLGVSVDIT” the protein production was “failed”.
In the case of “IDTNLLYVFFTSGSTGIPKGVSIAHKSVIDYTFWVCETFKFDENEILANQAPFYFDNSILDIFSSVKSGATLHLLPNHLFAFPNKILECLEKEKVSTIFWVPSVLIYFANTEALNNFSLNALKKMLFCGEIMPNKQLNIWRKHLPNALFANLYGPTEITDVCSFYIINRTFKDEEL”, the protein production is reported as “failed”.
In the case of “IEAENHKVTDKIKNAQPFLVDVVPAKSVIPELNDDAQKTLLHAGPPIQWSEMTGPMKGACIGAALFERWADNEEDALKIFEAGEVRFIPCHHVKAVGPMGGITSGNMPVFVVENRLEGNEAYCILNEGIGKVLRFGAYSQEVVDRLDWIKDVLGPTIAKALKLSEEGLNLNVLIARSITMGDEFHQRNIAASLNFLKELSPLIIKTDIPEDQKYEVIKFLADTDQFFLNVMMATGKAIVDGARKDTNGTIVTTMTRNGVNFGVRIAETGDQWHTAPVNTPKGLYFTGFSEEDGNPDVGDSAITETVGVGAMAMVAAPGVTRFVGAGGFEDALATSNEMAKICEGNNPTFSIPTWDFQGTCLGIDIRKVVELGITPIINTGIAHKNAGVGQIGAGTVRAPLGCFEKALEAYAEKLGITVE”, the protein production is reported as “failed”.
For “IEFESRTTDEGVAVVRPAGRLNMVAAPRLRELLRDVVDGGTTCVVVDLSATDFIDSSGLGALIAGLKAARQAGGDLRIAQPTEQVETVLALTNLNRVLRTHDSVDAAFD”, the protein production was “failed”.
For “IEKCWTEDEVKRFVKGLRQYGKNFFRIRKELLPNKETGELITFYYYWKKT”, the protein production was “not failed”.
With “IGIVNDMPLAVEALRRALAFEPQHQIVWVASNGAEAVTQCAADTPDVVLMDLLMPVMDGVEATRRIMAESPCAIVIVTVDIEQNVHRVFEAMGYGALDAVNTPALGIGNPQTAAAPLLRKIQNVGWLIGQRDNRGKVQVVPPKAGGARQRLVAIGASAGGPASLAVLLKQLPASFNAAVVLVQHVDEVFAAGMAEWLASESKLPVRLARDGEPPIPGQILLAGTNNHIRLLRNGSLVYTAEPRSFVYRPSIDVFFESVANYWRGDAVGVLLTGMGRDGAQGLKQMRERGFLTIAQDQASCAVYGMPKAAAAIDAAVQILSLEKIA” the protein production was “failed”.
For “IGIWFTGTDGRYHFVNKTFCNLVGIEEEDMLNTPSSNLAELLGSEIAHNCLDSDRAALGQDLAHVSYETIPRLNAKPYLLEITKVKLKNTR”, the protein production was “failed”.
With “IHHLPPVKAPLQTKKKIMKHCFLCGKKTGLATSFECRCGNNFCASHRYAEAHGCNYDYKSAGRRYLEEANPV” the protein production was “not failed”.
For “IHIQQIENLMEYEFSHLVQDSEEEGFNFLIRLINGYKNKVNVFNKTGECLYGIFQGDMLIGVGGLNEDPYTKDNKIGRLRRFYISRDYRRLGLGNLLLNQLLCHAEKYFEVIVLHTDTKQGDVFYTANGFVK”, the protein production was “failed”.
With “IIAWLGPQLRELTPVDTNKDPKTRLQEFLQSRGCDLPRYEVVDIQGEPHCRTFFVDCEVALLSDKTHGHGGSRRIAEQVAAAAALVALGVENGHD” the protein production was “failed”.
With “ILTENTPYFEQLSVPQRSVGRIIGRGGETIRSICKASGAKITCDKESEGTLLLSRLIKISGTQKEVAAAKHLILEKVSEDEELRKRIAHSA” the protein production was “not failed”.
In the case of “INIEIAYAFPERYYLKSFQVDEGITVQTAITQSGILSQFPEIDLSTNKIGIFSRPIKLTDVLKEGDRIEIYRPLLADPKEIRRK”, the protein production is reported as “not failed”.
In the case of “INSAIELMEHNSSLSISEIAQFTNTSTAYFSRIFKKTIGETPVCFYTKIKLKKVQKLLITTNLTLAEISEQTGFTDPFYLSKVFTTHLGCSPRTYRKN”, the protein production is reported as “failed”.
With “IPLGIYEKALPAGECWLERLKLAKALGFDFVEMSLDETDARLARLDWSPEQRLALVKAVAETGVRVPSMCLSAHRRFPLGSEDDAVRHQGLEIMRKAIQLAQDVGIRVIQLAGYDVYYQQANDETRRRFRDGLKQSVEMASRAQVTLAMEIMDYPLMNSISKALGYAHYLNNPWFQLYPDIGNLSAWDNDVQMELKAGSGHIVAVHVKDTKPGVFKNVPFGEGVVDFERCFETLKQTGYCGPYLIEMWSETSADPLAEVAKARDWVKARMARAGLM” the protein production was “not failed”.
